US20260284212 (published 2026)
Changes are numbered by the printed parent chain.

B1: A1CD601 VHH HuG1Fc (chimeric) (antibody, V domains shown)
VH: QVQLQESGGGLVQAGGSLRLSCTASERTFSDYALGWFRQGPGKEREFVAAINWVGGSTYYADSVKGRFTISRDNAKNTLLLQMNSLKPEDTAVYFCVASWGAMPVLTHVINYWGKGTQVTVSS
B2: CD601HH12 HuG1Fc (antibody, V domains shown)
VH: B1 VH with Q5V, A14P, G40A, A75S, L80Y, K87R, P88A, F95Y, Q118L
B3: CD601HH14 HuG1Fc (antibody, V domains shown)
VH: B1 VH with Q5V, A14P, T23S, G40A, L80Y, K87R, P88A, F95Y, Q118L
B4: CD601HH10 HuG1Fc (antibody, V domains shown)
VH: B1 VH with A14P, T23S, G40A, A75S, L80Y, K87R, P88A, F95Y, Q118L
B5: CD601HH8 HuG1Fc (antibody, V domains shown)
VH: QVQLVESGGGLVQPGGSLRLSCSASERTFSDYAMGWFRQAPGKEREFVAAINWVGGSTYYADSVKGRFTISRDNSKNTLYLQMNSLRAEDTAVYYCVASWGAMPVLTHVINYWGKGTLVTVSS

Biological target: T1, human CD6 (human, UniProt P30203)
T1 chain: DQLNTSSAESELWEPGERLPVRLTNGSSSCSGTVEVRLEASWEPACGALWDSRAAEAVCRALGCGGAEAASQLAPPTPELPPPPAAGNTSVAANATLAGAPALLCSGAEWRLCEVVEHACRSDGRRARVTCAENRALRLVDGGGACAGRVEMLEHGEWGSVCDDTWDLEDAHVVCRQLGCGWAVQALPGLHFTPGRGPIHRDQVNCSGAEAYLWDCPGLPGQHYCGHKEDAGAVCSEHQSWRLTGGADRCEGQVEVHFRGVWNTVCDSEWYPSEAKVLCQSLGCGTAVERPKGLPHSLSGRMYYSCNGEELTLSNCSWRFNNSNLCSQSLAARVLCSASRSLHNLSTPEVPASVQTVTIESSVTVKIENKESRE
Assay: not given

Q: For B1, which Kd is on record?
A: 0.21 nM

Q: For B2, which Kd is on record?
A: 0.222 nM

Q: Which Kd does the source give for B3 here?
A: 0.269 nM

Q: Which Kd does the source give for B4 here?
A: 0.247 nM

Q: For B5, which Kd is on record?
A: 0.24 nM

Biological target: T1, human CD6
Assay: ELISA

Q: B1 was tested. Which EC50 did it give?
A: 0.053 nM

Q: For B2, which EC50 is on record?
A: 0.05 nM

Q: B3 was tested. Which EC50 did it give?
A: 0.053 nM

Q: B4 was tested. Which EC50 did it give?
A: 0.066 nM

Q: For B5, which EC50 is on record?
A: 0.053 nM

Biological target: T2, human CD5 (human, UniProt P06127)
T2 chain: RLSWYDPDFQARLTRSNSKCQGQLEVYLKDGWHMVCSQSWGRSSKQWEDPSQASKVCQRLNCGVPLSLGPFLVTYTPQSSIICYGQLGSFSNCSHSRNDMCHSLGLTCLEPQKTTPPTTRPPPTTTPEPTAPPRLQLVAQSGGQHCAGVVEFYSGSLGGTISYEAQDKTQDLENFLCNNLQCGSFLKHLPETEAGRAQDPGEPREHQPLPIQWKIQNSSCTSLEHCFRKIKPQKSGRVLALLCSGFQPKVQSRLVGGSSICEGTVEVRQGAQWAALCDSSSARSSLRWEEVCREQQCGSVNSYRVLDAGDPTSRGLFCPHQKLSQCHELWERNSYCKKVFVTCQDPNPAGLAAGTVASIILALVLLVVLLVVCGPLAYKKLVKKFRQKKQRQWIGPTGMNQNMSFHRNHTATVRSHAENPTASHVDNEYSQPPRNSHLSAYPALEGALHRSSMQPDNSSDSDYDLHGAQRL
Assay: ELISA

Q: Does B1 bind?
A: no binding

Q: Does B2 bind?
A: no binding

Q: Does B3 bind?
A: no binding

Q: Does B4 bind?
A: no binding

Q: Does B5 bind?
A: no binding
